{"source": "patent US8895062B2", "about": "“Surface-layer protein coated microspheres and uses thereof” (University of Maryland, Baltimore, priority 2006, dated 2014)", "molecules": {"B1": {"name": "HD-5α: human α-defensin 5, chemically synthesized and folded, three intra-molecular disulfide bonds (peptide, UniProt Q01523 20-94, looked up)", "Defensin alpha 5": "ESLQERADEATTQKQSGEDNQDLAISFAGNGLSALRTSGSQARATCYCRTGRCATRESLSGVCEISGRLYRLCCR", "modifications": "Defensin-5", "notes": "human α-defensin 5, chemically synthesized and folded, three intra-molecular disulfide bonds"}, "B2": {"name": "SlpA: Surface layer (S-layer) protein purified from Lactobacillus brevis ATCC 8287 by 5M LiCl extraction and gel filtration (protein)", "chain": "KSYATAGAYSTLKTDAATRNVEATGTNALYTKPGTVKGAKVVASKATMAKLASSKKSADYFRAYGVKTTNRGSVYYRVVTMDGKYRGYVYGGKSDTAFAGGIKSAETTTKADMPARTTGFYLTDTSKNTLWTAPKYTQYKASKVSLYGVAKDTKFTVDQAATKTREGSLYYHVTATNGSGISGWIYAGKGFSTTATGTQVLGGLSTDKSVTATNDNSVKIVYRTTDGTQVGSNTWVTSTDGTKAGSKVSDKAADQTALEAYINANKPSGYTVTNPNAADATYGNTVYATVSQAATSKVALKVSGTPVTTALTTADANDKVAANDTTANGSSVAGSTVYAAGTKLAQLTTDLTGEKGQVVTLTAIDTDLEDATFTGTTTYYSDLGKAYHYTYTYNKDSAASSNASTQFGSNVTGTLTATLVMGKSTATANGTTWFN"}}, "key": {"[1]": {"test_system": "Caco-2 intestinal epithelial cells", "assay": "IL-8 secretion by Caco-2 cells (Luminex-100)", "assay_type": "cell-based, human", "settings": "18 hours", "protocol": "TNFα (100 ng/ml; dark grey bar) served as a positive control. Following incubation for 18 hours, culture supernatants were analyzed for IL-8 using the Luminex-100 system in duplicate. Data represent mean and standard deviation of three individual experiments.\nNo peptides (c) and TNFα alone (dark grey bar) served as controls. Following incubation for 18 hours, culture supernatants were analyzed for IL-8 using the Luminex-100 system in duplicate. Data represent mean and standard deviation of three individual experiments.\nSubconfluent monolayers of Caco-2 cells were maintained in RPMI 1640 medium (Gibco), supplemented with 10% FBS (Valley Biomedical, Winchester, Va.), 2 mM L-glutamine (Quality Biological, Gaithersburg, Md.), 20 mM HEPES, 1× nonessential amino acids, 1 mM sodium pyruvate and 5% Penicillin/Streptomycin (Sigma) in a humidified incubator at 37° C. with 5% CO2. Caco-2 cells were used between passages 35-42. Caco-2 cells were plated at a density of 4×10^4 cells/cm^2 in a 96-well plate 48 hours before use. The cells were gently washed twice with serum-free medium and incubated for a further 18 hours in serum-free medium containing the peptides at a final concentration of 50 or 100 ug/ml. Human recombinant tumor necrosis factor alpha (Sigma; 100 ng/ml) was included during incubation with the peptides (100 ug/ml) as indicated. The culture supernatant was collected for measurement of IL-8 using the Luminex-100 system (Bio-rad Laboratories)."}, "E. coli ATCC 25922": {"test_system": "E. coli ATCC 25922", "assay": "Antibacterial activity, 96-well turbidimetric assay, E. coli", "assay_type": "cell-based, Escherichia coli", "protocol": "(§1) Strains were exposed to the peptides at concentrations varying twofold from 0.12 to 125 μg/ml. (B) Strains were exposed to fixed peptide concentrations (100 ug/ml for E. coli; 50 ug/ml for S. aureus) in the absence or presence of the indicated concentrations of sodium chloride. Each curve is the mean of three separate experiments. Points scored as zero survival could not be plotted.\n(§2) The antibacterial activity of HD-5 and HD-5Abu against E. coli ATCC 25922 and S. aureus ATCC 29213 was carried out in a 96-well turbidimetric assay as described previously."}, "S. aureus ATCC 29213": {"test_system": "S. aureus ATCC 29213", "assay": "Antibacterial activity, 96-well turbidimetric assay, S. aureus", "assay_type": "cell-based, Staphylococcus aureus", "protocol": "as §1, §2"}, "[2]": {"biological_target": "Fibronectin (human plasma)", "assay": "Surface plasmon resonance (BIAcore 3000), immobilized SlpA binding to fibronectin", "protocol": "(§3) The interaction between SlpA and extracellular matrix components was evaluated by surface plasmon resonance on a BIAcore 3000 instrument. Purified SlpA protein in 5M LiCl was dialyzed against double-distilled water overnight. Monomeric and/or oligomeric protein was separated from self-assembled material by centrifugation at 20,000×g for 20 min. SlpA protein (50 ug/ml in 10 mM Sodium Phosphate pH 7.4) was covalently coupled to CM5 carboxylated dextran chips using N-hydroxysuccinimide (NHS) chemistry. Uncoupled NHS-ester groups were blocked with 1M Ethanolamine, resulting in the coupling of about 1700 resonance units (RU's) to the chip. Kinetic analysis was carried out at 25° C. in 10 mM HEPES, 150 mM NaCl, 3 mM EDTA, 0.005% surfactant P20, pH 7.4. Fibronectin, laminin, fibrinogen and collagen were treated according to manufacturer's instructions and injected at indicated concentrations at a flow rate of 20 ul/min over each flow cell. Binding was determined experimentally by comparing the number of RU's observed as a function of time to an activated and blocked flow cell containing no linked protein. Non-specific binding to the control flow cell appeared insignificant. Data were evaluated using the BIAevaluation 4.1 software. The association and dissociation data were modeled with the BIAevaluation 4.1 software (Pharmacia Biosensor AB). Following subtraction of data from the control flow cell, the binding data produced for the various protein concentrations were fitted simultaneously, assuming the 1:1 Langmuir model. The equilibrium constant for the fibronectin+benzamidine experiment was calculated using steady-state kinetics.\n(§4) To examine the binding properties of SlpA to the extracellular matrix proteins fibronectin, laminin, fibrinogen and collagen in detail, surface plasmon resonance was used. […] The association and dissociation rate constants were estimated from the binding data at different concentrations using the BIAevaluation software and from these values the binding constant was calculated (Table 2). […] In addition, the interaction between SlpA and the ECN components fibrinogen and collagen was studied."}, "[3]": {"biological_target": "T1, Laminin (basement membrane of Engelbreth-Holm-Swarm mouse sarcoma) (Mus musculus, UniProt P02468+P02469+P19137)", "T1 construct": "Laminin (basement membrane of Engelbreth-Holm-Swarm mouse sarcoma); purchased Sigma; host or cells: Engelbreth-Holm-Swarm mouse sarcoma basement membrane", "assay": "Surface plasmon resonance (BIAcore 3000), immobilized SlpA binding to laminin", "protocol": "as §3, §4"}, "[4]": {"biological_target": "T2, Collagen (human placenta Type IV) (Homo sapiens, UniProt P02462+P08572)", "T2 construct": "purchased Sigma; host or cells: human placenta", "T2 sequence (P02462 173-1669)": "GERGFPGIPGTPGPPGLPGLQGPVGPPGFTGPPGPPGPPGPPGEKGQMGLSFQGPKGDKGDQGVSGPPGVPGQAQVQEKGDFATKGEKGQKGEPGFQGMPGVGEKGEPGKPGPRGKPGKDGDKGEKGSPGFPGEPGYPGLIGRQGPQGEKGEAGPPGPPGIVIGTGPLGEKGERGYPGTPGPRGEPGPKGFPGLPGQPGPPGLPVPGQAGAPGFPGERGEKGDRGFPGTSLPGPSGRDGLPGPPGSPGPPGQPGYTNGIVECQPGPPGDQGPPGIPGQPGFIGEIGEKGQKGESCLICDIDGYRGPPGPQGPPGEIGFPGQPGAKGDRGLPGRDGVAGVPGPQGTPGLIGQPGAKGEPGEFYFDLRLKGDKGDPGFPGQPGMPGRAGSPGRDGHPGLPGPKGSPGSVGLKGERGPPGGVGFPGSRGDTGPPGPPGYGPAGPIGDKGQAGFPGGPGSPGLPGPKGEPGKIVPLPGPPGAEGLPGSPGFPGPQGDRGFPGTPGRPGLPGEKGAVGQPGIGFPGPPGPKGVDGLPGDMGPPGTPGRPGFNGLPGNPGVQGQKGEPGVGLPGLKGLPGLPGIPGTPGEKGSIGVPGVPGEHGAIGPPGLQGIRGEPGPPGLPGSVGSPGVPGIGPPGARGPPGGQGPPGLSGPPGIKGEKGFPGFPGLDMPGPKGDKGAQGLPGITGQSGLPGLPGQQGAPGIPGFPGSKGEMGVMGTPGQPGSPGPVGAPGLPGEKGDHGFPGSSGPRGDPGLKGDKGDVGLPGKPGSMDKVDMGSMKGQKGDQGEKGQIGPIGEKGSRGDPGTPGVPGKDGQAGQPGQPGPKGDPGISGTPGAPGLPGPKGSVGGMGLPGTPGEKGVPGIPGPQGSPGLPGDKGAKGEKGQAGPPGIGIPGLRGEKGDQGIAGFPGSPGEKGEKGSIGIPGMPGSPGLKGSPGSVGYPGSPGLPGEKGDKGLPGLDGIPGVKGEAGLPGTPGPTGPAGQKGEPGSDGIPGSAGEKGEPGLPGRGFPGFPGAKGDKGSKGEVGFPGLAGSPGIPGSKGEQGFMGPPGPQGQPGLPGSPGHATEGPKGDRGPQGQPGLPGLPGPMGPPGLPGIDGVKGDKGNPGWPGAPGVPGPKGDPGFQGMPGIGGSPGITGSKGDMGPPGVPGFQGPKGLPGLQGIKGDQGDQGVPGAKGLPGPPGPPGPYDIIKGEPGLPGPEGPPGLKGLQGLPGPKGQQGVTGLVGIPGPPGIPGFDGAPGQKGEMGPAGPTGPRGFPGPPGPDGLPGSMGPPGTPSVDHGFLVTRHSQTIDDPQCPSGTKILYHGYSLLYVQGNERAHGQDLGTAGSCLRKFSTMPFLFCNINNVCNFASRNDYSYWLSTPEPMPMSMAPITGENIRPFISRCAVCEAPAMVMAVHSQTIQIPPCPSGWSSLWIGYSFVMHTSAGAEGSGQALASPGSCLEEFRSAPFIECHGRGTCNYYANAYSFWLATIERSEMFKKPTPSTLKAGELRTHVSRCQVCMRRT", "T2 sequence (P08572 184-1712)": "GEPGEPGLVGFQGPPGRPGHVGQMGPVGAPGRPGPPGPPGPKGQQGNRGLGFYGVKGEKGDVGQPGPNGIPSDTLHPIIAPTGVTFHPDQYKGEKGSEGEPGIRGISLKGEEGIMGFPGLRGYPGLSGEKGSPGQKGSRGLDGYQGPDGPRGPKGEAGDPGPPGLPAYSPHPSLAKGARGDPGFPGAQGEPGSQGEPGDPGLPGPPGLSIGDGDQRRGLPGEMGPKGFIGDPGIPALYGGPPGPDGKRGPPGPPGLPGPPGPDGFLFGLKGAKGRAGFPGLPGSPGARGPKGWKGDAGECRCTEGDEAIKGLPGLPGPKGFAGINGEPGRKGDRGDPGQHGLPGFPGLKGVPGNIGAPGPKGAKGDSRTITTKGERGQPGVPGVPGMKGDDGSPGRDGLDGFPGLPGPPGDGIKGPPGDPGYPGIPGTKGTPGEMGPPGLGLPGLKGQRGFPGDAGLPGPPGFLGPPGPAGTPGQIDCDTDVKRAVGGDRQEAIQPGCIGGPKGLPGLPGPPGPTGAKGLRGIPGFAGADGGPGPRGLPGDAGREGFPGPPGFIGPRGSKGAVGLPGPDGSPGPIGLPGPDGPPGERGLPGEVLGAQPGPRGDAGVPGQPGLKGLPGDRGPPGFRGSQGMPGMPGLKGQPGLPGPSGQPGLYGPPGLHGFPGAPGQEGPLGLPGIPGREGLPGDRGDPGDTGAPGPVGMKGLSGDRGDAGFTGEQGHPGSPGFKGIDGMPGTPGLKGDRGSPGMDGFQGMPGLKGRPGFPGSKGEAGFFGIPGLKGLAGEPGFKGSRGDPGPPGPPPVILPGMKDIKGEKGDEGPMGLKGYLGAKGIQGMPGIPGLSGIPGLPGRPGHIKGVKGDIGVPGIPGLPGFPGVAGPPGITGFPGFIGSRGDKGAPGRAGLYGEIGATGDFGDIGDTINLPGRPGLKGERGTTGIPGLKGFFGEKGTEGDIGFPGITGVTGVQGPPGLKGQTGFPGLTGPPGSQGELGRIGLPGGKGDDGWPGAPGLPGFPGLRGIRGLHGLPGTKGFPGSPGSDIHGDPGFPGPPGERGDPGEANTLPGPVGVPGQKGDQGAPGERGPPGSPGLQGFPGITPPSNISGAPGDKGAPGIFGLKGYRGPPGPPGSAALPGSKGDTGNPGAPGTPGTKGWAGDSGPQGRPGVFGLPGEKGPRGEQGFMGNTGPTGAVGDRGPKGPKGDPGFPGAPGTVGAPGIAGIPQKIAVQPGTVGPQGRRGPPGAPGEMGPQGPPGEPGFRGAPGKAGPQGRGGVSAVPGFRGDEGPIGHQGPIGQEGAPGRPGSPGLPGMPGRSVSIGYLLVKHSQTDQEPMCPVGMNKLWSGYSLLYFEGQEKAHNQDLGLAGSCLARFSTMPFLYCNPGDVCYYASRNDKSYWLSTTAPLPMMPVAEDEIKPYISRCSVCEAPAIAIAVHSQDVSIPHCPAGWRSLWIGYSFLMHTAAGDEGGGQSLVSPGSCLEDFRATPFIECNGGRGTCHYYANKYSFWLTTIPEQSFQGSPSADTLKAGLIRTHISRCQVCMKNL", "assay": "Surface plasmon resonance (BIAcore 3000), immobilized SlpA binding to collagen", "protocol": "as §3, §4"}, "[5]": {"biological_target": "T3, Fibrinogen (human plasma) (Homo sapiens, UniProt P02671+P02675+P02679)", "T3 construct": "Fibrinogen (human plasma) was obtained from Calbiochem; purchased Calbiochem; host or cells: human plasma", "T3 sequence (P02671 20-644 isoform P02671-2 limits assumed)": "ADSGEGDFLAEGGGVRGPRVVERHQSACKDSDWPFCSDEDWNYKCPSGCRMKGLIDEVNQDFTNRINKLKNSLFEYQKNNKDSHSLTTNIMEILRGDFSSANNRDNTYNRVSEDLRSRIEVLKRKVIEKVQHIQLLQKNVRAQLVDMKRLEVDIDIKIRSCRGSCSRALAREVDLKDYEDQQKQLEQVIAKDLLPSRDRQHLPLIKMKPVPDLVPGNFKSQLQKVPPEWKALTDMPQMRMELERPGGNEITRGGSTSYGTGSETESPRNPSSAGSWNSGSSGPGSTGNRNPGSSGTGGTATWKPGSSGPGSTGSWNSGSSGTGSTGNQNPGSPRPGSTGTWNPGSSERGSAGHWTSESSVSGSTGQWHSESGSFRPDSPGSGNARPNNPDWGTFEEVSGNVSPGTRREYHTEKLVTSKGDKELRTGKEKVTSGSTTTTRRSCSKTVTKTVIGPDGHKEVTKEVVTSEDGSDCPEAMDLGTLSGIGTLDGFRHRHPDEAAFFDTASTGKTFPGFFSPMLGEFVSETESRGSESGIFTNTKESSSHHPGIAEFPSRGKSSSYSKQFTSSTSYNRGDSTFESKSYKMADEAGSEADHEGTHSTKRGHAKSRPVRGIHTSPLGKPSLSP", "T3 sequence (P02675 31-491)": "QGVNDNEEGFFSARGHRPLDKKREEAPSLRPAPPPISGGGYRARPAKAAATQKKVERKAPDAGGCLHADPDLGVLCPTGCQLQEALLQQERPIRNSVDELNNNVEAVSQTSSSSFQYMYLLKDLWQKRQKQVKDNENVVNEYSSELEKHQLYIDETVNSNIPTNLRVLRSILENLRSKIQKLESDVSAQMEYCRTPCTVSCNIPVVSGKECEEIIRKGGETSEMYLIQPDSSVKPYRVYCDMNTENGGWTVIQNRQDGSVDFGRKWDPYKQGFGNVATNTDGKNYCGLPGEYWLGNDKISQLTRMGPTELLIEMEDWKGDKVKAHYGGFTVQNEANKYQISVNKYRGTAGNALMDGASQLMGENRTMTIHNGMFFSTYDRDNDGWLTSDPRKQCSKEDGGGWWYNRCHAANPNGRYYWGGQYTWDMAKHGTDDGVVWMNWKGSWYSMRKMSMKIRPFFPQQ", "T3 sequence (P02679 27-437 isoform P02679-2 limits assumed)": "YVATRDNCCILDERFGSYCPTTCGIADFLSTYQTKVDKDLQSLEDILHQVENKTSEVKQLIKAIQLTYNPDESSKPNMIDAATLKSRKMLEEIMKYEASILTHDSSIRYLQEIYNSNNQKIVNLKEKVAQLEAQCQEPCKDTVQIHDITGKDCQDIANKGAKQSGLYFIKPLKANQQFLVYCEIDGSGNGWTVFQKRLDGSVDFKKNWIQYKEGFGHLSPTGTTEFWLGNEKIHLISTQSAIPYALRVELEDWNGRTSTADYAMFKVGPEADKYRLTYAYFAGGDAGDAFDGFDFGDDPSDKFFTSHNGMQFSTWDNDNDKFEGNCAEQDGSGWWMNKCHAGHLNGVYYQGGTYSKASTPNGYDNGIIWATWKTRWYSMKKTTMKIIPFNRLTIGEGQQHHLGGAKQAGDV", "assay": "Surface plasmon resonance (BIAcore 3000), immobilized SlpA binding to fibrinogen", "settings": "from binding constants", "protocol": "The interaction between SlpA and extracellular matrix components was evaluated by surface plasmon resonance on a BIAcore 3000 instrument. Purified SlpA protein in 5M LiCl was dialyzed against double-distilled water overnight. Monomeric and/or oligomeric protein was separated from self-assembled material by centrifugation at 20,000×g for 20 min. SlpA protein (50 ug/ml in 10 mM Sodium Phosphate pH 7.4) was covalently coupled to CM5 carboxylated dextran chips using N-hydroxysuccinimide (NHS) chemistry. Uncoupled NHS-ester groups were blocked with 1M Ethanolamine, resulting in the coupling of about 1700 resonance units (RU's) to the chip. […] Binding was determined experimentally by comparing the number of RU's observed as a function of time to an activated and blocked flow cell containing no linked protein. […] Data were evaluated using the BIAevaluation 4.1 software. […] The equilibrium constant for the fibronectin+benzamidine experiment was calculated using steady-state kinetics.\nTo examine the binding properties of SlpA to the extracellular matrix proteins fibronectin, laminin, fibrinogen and collagen in detail, surface plasmon resonance was used. […] The association and dissociation rate constants were estimated from the binding data at different concentrations using the BIAevaluation software and from these values the binding constant was calculated (Table 2). […]"}, "[6]": {"settings": "peptide 0.12 to 125 μg/ml, 2 hour incubation"}, "[7]": {"settings": "fibronectin to immobilized SlpA"}}, "note": "“And” between values parts separate entries of the source, which are not always exact repeats. Equal entries are not always repeated.", "data": [{"molecule": "TNFα [reference compound]", "values": [{"measurement": "IL-8 secretion increase relative to the control", "setting": "[1]; TNFα 100 ng/ml alone", "result": "~10", "unit": "fold"}]}, {"molecule": "B1", "values": [{"measurement": "antibacterial activity against E. coli at highest salt concentration", "setting": "E. coli ATCC 25922; peptide 100 ug/ml, 100 mM sodium chloride", "result": "almost completely inhibited"}, {"measurement": "antimicrobial activity (killing) against E. coli", "setting": "E. coli ATCC 25922; [6]", "result": "efficiently killed"}, {"measurement": "antibacterial activity against S. aureus at highest salt concentration", "setting": "S. aureus ATCC 29213; peptide 50 ug/ml, 100 mM sodium chloride", "result": "still significantly toxic"}, {"measurement": "antimicrobial activity (killing) against S. aureus", "setting": "S. aureus ATCC 29213; [6]", "result": "efficiently killed"}, {"measurement": "IL-8 levels increase compared to control cells", "setting": "[1]; peptide 100 ug/ml, serum-free medium", "result": "~10", "unit": "fold"}, {"measurement": "induction of IL-8 secretion", "setting": "[1]; peptide 50 and 100 ug/ml", "result": "dose-dependent"}]}, {"molecule": "B2", "values": [{"measurement": "Kd", "setting": "[2]; fibronectin + benzamidine (SlpA preincubated with 1 mM benzamidine), steady-state kinetics", "result": 30100, "unit": "nM"}, {"measurement": "ka × 10^3", "setting": "[2]; [7]", "result": "7.04 × 10^3"}, {"measurement": "kd × 10^−3 (s^−1)", "setting": "[2]; [7]", "result": "6.32 × 10^−3 s^−1"}, {"measurement": "Kd", "setting": "[2]; fibronectin to immobilized SlpA, 25° C., 1:1 Langmuir model", "result": "89.9 nM and 89.8 nM"}, {"measurement": "affinity of SlpA to bind laminin compared with fibronectin", "setting": "[3]; from calculated Kd values", "result": "three-fold higher affinity"}, {"measurement": "ka × 10^3", "setting": "[3]; laminin + benzamidine (1 mM)", "result": "3.03 × 10^3"}, {"measurement": "kd × 10^−3 (s^−1)", "setting": "[3]; laminin + benzamidine (1 mM)", "result": "2 × 10^−3 s^−1"}, {"measurement": "ka × 10^3", "setting": "[3]; laminin to immobilized SlpA", "result": "4.89 × 10^3"}, {"measurement": "kd × 10^−3 (s^−1)", "setting": "[3]; laminin to immobilized SlpA", "result": "1.3 × 10^−3 s^−1"}, {"measurement": "Kd", "setting": "[4]; collagen to immobilized SlpA", "result": 31.8, "unit": "µM"}, {"measurement": "ka × 10^3", "setting": "[4]; collagen to immobilized SlpA", "result": "3.47 × 10^3"}, {"measurement": "kd × 10^−3 (s^−1)", "setting": "[4]; collagen to immobilized SlpA", "result": "1.1 × 10^−3 s^−1"}, {"measurement": "binding affinity for collagen compared with affinity for fibronectin and laminin", "setting": "[4]; from binding constants", "result": "three orders of magnitude less"}, {"measurement": "binding affinity for fibrinogen compared with affinity for fibronectin and laminin", "setting": "[5]", "result": "three orders of magnitude less"}]}]}
